{"source": "paper doi:10.1101/2022.08.03.502720", "about": "(bioRxiv, 2022)", "target": "the molecule itself", "experiment": "DEER", "data": [{"protein": "CueR_19F58_L60H_G64H mutant (natural protein, E. coli, 19F-phenylalanine at F58; Cu(II)-NTA spin label bound at the dHis site (L60H, G64H)) MNISDVAKITGLTSKAIRFYEEKGLVTPPMRSENGYRTYTQQHLNELTLLRQARQVGFNHEESHELVNLFNDPQRHSADVKRRTLEKVAEIERHIEELQSMRDQLLALANACPGDDSADCPIIENLSGCCHHRAG", "values": [{"measurement": "binding result", "result": "binds"}]}]}
